Measured values as given in the supplement of paper PMC12042874.
± gives the uncertainty stated by the source.

Test: amyloid nucleation score (Sup35N fusion, yeast selection) (log enrichment); library NNK1; higher = more nucleation; inactive = no reads after selection
How it was run: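 The nucleation score is the log enrichment of output over input reads, calculated with DiMSum and centred on the mode score of non-aggregating sequences. Sequences with under 100 input reads were excluded. Reads came from Illumina sequencing of plasmid inserts from psi-negative yeast expressing Sup35N fused to peptides of 20 random codons, induced 24 hours with 100 μM copper sulfate and grown 7 days at 30°C without adenine and uracil.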

Going from ELVYRMESIFCSELRVLGKF to HESYVVRIYIFEDRRYLCEV, the amyloid nucleation score falls from 4.14 ± 0.15 to 0.037 ± 0.6.

FTSVITLMFNYNTFWKKSSY and GSALIE are within error of each other in amyloid nucleation score: 1.12 ± 0.27 for the first, 1.5 ± 0.74 for the second.

Compared with SLMFTPEYCVED, ILNGFTRYLR is lower in amyloid nucleation score: 1.41 ± 0.69 for the first, -0.12 ± 0.36 for the second.

IYKLLGRVKSMMFLWYTVHS and IGDNVNGSLLEIW are within error of each other in amyloid nucleation score: -0.527 ± 0.52 for the first, -0.528 ± 0.32 for the second.

Going from VFTLPLDWQKRCGYDSLRFP to CFPSSVFVGCIFF, the amyloid nucleation score rises from 0.018 ± 0.44 to 7.532 ± 0.044.

NSEMCWFFNMISSTLAHLLV and ALSDFGDKLSPPEDLRLEHW are within error of each other in amyloid nucleation score: 1.75 ± 0.31 for the first, 1.07 ± 0.62 for the second.

FTCFAK and HQVNSGDLSNMVLCLMLIRW are within error of each other in amyloid nucleation score: 1.14 ± 0.52 for the first, 1.84 ± 0.19 for the second.

ILTRVV and TFVSLATTDFPPNFSLKLFV are within error of each other in amyloid nucleation score: 0.37 ± 1.1 for the first, -0.579 ± 0.49 for the second.

VSYQGTSAFDGSRKVVGPTL and YLPIKPFIYANILWGFTVSC are within error of each other in amyloid nucleation score: 0.353 ± 0.54 for the first, -0.025 ± 1 for the second.

VVFRGAVREVQGSWESCILA and DSWRSIIGFRERVSTMQYLI are within error of each other in amyloid nucleation score: 0.676 ± 0.52 for the first, 0.96 ± 0.66 for the second.

LLAFYSVTFVSRWILQCYML and GRFFVHEVGMFQTSGQ are within error of each other in amyloid nucleation score: -0.498 ± 0.36 for the first, -0.187 ± 1.3 for the second.

Going from TSQTMTCWGSAL to GDVFVYSDDWGDGVNGSGGR, the amyloid nucleation score falls from 0.93 ± 0.4 to -1.96 ± 2.4.

Going from ERPTNSYGSREILNSYIINF to SCILFY, the amyloid nucleation score falls from 5.05 ± 0.084 to 1.75 ± 0.14.

First: GRRGKWVSSPWGGELKTCSK
Second: FNSRTAGCRLSTQMFSRKQT
The amyloid nucleation score of the first is higher: 4.24 ± 0.084 for the first, 0.402 ± 0.92 for the second.

Compared with YSDLSVHHYFWHQFRQKCDR, VLYMVEACLVWGIRQSESAV is lower in amyloid nucleation score: 2.01 ± 0.21 for the first, 0.393 ± 0.73 for the second.

FFTRGIVMQRRQHWNGVYGS and LNHLVSPKALQN are within error of each other in amyloid nucleation score: 0.737 ± 0.49 for the first, 0.017 ± 0.4 for the second.

NGTWYILSQASFFYELDAYC and RTLGDSNGNNVGLQVVPKCL are within error of each other in amyloid nucleation score: -0.012 ± 0.43 for the first, -0.108 ± 0.31 for the second.

Going from FTCKWRVGFWTPVSDPV to SSSFTSNSFLLLLWSYKDMF, the amyloid nucleation score rises from -1.27 ± 0.7 to 1.16 ± 0.21.

LEGITELWRVMSYLMMTMVR and VCGFWVWLYVGVYSSIPNSM are within error of each other in amyloid nucleation score: -0.457 ± 1.1 for the first, -0.015 ± 0.31 for the second.

LGSGQGVNLSALPRFEYACR and TLPYSKKSLTQFRRGAKICY are within error of each other in amyloid nucleation score: 0.527 ± 0.44 for the first, 0.588 ± 0.56 for the second.

LNHRIYNLLHVILWVKQWMK and RKESDNDFSTCVTWQNRHPD are within error of each other in amyloid nucleation score: 0.164 ± 1.5 for the first, 0.529 ± 0.74 for the second.

DVVLVYGTITGSWVQSVWEG and MIRGLPQMMNWVP are within error of each other in amyloid nucleation score: 0.553 ± 0.69 for the first, 0.758 ± 0.38 for the second.

RMDSGIGDRSTGGDRTNGMW and RGSKRTVKLNSGVRVKSYDW are within error of each other in amyloid nucleation score: -0.546 ± 0.53 for the first, 0.373 ± 1.4 for the second.

FLHFMVY and SVLRRQDFTKLLMFRSGPLG are within error of each other in amyloid nucleation score: 0.027 ± 0.64 for the first, 0.424 ± 0.38 for the second.

MFRWHVLGKKITP and CPRIYGVRLKSSRLPAGVYV are within error of each other in amyloid nucleation score: -0.067 ± 0.37 for the first, 1 ± 1 for the second.

FEVNFPAYIYWSDCPVVGVS and LDQKTFWLSVPVSWQIPADM are within error of each other in amyloid nucleation score: -0.127 ± 0.38 for the first, 0.477 ± 0.61 for the second.

DSGLSAMGMELRCYEYLVSW and YYWVT are within error of each other in amyloid nucleation score: 0.886 ± 1.1 for the first, -1.16 ± 2.4 for the second.

VNVKSVRYRKMSLGVYLVDW and TPAFTIFSWAIGEDYLFVEM are within error of each other in amyloid nucleation score: 0.261 ± 0.68 for the first, 0.777 ± 0.9 for the second.

CSVRAVGILRWAFFGEHPLN and LHSQKGILSLSSPI are within error of each other in amyloid nucleation score: -0.422 ± 0.41 for the first, -0.223 ± 0.32 for the second.

First: WEGLQLLGS
Second: YGCVCGSDNTHWNYMLVNNH
The amyloid nucleation score of the first is lower: -0.138 ± 0.91 for the first, 7.222 ± 0.051 for the second.

SWSSVQSAVKGHPLGGNTGR and WWDHVWGVR are within error of each other in amyloid nucleation score: -0.72 ± 0.74 for the first, 0.31 ± 0.75 for the second.

First: LVFCVLMW
Second: ICFFGCQGGGPRLRQDRCRT
The amyloid nucleation score of the first is higher: 0.532 ± 0.16 for the first, -0.53 ± 0.63 for the second.

Compared with SSQRGGNPGIMFNWEIVLRG, GKSCGHFWGRLNEGGQKLRV is lower in amyloid nucleation score: 2.59 ± 0.14 for the first, -0.772 ± 0.64 for the second.

FCHYTVLYDSPTLLVRVTWA and GFMIICN are within error of each other in amyloid nucleation score: -0.681 ± 0.85 for the first, -0.405 ± 0.88 for the second.

NTLSISDSYVEYETWEVIPV and PCAETLVRHIHAYLKWI are within error of each other in amyloid nucleation score: 1.62 ± 0.5 for the first, 0.065 ± 1.2 for the second.

HNYVGDTLGVMSCWPTTRFP and REDPIALGSRWTRPISKTLG are within error of each other in amyloid nucleation score: 0.087 ± 0.87 for the first, 0.734 ± 0.97 for the second.

FEHVSMWIVCFVKNLKYRIR and CWRLSYGLGVTFNKMLWPWK are within error of each other in amyloid nucleation score: -0.86 ± 0.86 for the first, 0.43 ± 0.56 for the second.

Work on FSWADLDRYCISLQNQGPLA yielded an amyloid nucleation score of 0.66 ± 0.42.

For QLGQAICRSLYNVRSYMQGF, the amyloid nucleation score was “inactive”.
With SNPTYLWVVLLVRSAALRMD the amyloid nucleation score was “inactive”.
In the case of LYVDH, the amyloid nucleation score is reported as “inactive”.
With TSPCYWNCI the amyloid nucleation score was “inactive”.
With NSRFKNFMSNTHVH the amyloid nucleation score was “inactive”.
For NFRNSGESSTNYSK, the amyloid nucleation score was “inactive”.
For VSEIFFWFKSWRRRLRLRMG, the amyloid nucleation score was “inactive”.
In the case of ATFSFGRT, the amyloid nucleation score is reported as “inactive”.
In the case of TIASTGVFNM, the amyloid nucleation score is reported as “inactive”.
In the case of LRCFYEYGFHKRTKVDSIDT, the amyloid nucleation score is reported as “inactive”.
